One substance from paper PMC6628914 can be followed below.

The target in this test is HIV-1 BaL envelope (Env, gp120-gp41) on HIV-1 BaL pseudovirions (HIV-1 BaL, Env clone BaL.01) (UniProt Q2MKA9). In words: two-color fluorescence correlation spectroscopy (FCS).

Substance “mAb b12 (IgG), Alexa 647-labelled (antibody)” returned a percent of mAb virion-bound (slower diffusion coefficient) of 42%.
